Laboratory results reported in patent US20150210768A1, “Methods and Compounds for Preventing, Treating and Diagnosing an Inflammatory Condition” (Westfaelische Wilhelms-Universitaet Muenster, priority 2012, published 2015).
Positions count from the first letter of the chain named. Numbers in names are those of the source.

Legend:
his-tagged rhTLR4/MD2 [1] = biological target: T1, his-tagged rhTLR4/MD2 (human, UniProt O00206 24-631; Q9Y6Y9 19-160); assay: pull-down on beads carrying TLR4/MD2, MALDI-TOF mass spectrometry of the eluate
T1 construct: Bought recombinant human complex (carrier free, R&D SYSTEMS), his-tagged; In the pull-down it was captured by anti-His antibody on Protein A/G agarose; in the ELISA it was coated on the plate; also called TLR4/MD2 complex; TRLR4/MD2
T1 sequence (O00206 24-631 limits assumed, chain 1 of 2): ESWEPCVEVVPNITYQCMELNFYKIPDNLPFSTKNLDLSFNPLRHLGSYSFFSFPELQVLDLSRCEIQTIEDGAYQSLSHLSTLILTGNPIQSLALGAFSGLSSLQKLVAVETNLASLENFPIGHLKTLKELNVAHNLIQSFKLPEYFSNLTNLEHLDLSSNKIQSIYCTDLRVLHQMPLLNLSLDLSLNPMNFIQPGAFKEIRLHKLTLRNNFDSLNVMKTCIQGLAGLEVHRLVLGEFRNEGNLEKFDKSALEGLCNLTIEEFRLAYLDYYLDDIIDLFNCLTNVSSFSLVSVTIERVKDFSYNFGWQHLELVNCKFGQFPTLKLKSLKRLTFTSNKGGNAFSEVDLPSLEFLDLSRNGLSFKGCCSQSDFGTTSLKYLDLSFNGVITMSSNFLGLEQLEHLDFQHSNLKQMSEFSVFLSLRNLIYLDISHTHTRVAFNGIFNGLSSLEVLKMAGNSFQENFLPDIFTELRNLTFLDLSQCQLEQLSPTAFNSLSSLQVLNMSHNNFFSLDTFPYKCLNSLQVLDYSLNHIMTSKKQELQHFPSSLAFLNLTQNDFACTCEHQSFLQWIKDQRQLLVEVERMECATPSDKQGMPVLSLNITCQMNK
T1 sequence (Q9Y6Y9 19-160 limits assumed, chain 2 of 2): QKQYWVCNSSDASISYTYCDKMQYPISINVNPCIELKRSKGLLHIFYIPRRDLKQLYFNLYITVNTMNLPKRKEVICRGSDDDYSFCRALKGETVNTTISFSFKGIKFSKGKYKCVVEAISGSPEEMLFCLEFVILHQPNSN
Experimental: Anti-His antibody (5 μL, 0.5 mg/mL, Invivogen) and his-tagged rhTLR4/MD2 (5 μL, 1 mg/mL, carrier free, R&D SYSTEMS) were mixed and coupled to Protein A/G Agarose (50 μl, Pierce, Thermo Scientific). Trypsin digested peptides of S100A9 were added for 3 h at 4° C. in the presence of 1 mM Calcium. After washing of the beads in HBS/1 mM Ca-buffer for three times bound peptidic fragments were eluted by addition of 10 mM TRIS/2 mM EDTA-buffer and analysed by ESI-QIT- and MALDI-TOF-mass spectrometry. Identical experiments were performed to analyze the binding of the chemical synthesized peptides of S100A9 (aa63-79), S100A8 (aa55-71) and the corresponding control peptides aa63-79 AS and aa55-71 A3.

his-tagged rhTLR4/MD2 [2] = biological target: T1, his-tagged rhTLR4/MD2; assay: modified S100A9 ELISA, TLR4/MD2 coated on the plate, 2 ug/ml S100A9, absorbance at 450 nm
Experimental: Binding of S100A9 proteins to TLR4/MD2 was analysed by a modified S100A9-ELISA. Briefly, TLR4/MD2 was coupled to the wells of a 96-well plate and served as capturing molecule. After blocking of the unspecific binding sites by PBS/5% skim milk powder plates were washed three times. S100A9-wt or mutant S100A9 proteins were added at a concentration of 2 μg/ml each in the presence and absence of 100 μM Calcium and incubated for two hours at room temperature. Unbound S100A9 was removed by washing the plates for three times followed by the addition of a primary anti-S100A9-antibody (1 μg/ml, polyclonal, rabbit). After a washing step the secondary anti-rabbit-IgG-antibody coupled to HRP (1 μg/ml from Cell Signalling) was added. TMB was used as substrate for HRP to quantify binding by absorbance readings at 450 nm in an ELISA reader (Anthos Mirkosysteme).

human monocytes = assay: Stimulation of human monocytes, TNFα release quantified by ELISA; type: cell-based; conditions: human monocytes stimulated for four hours; TNFα by ELISA; FIG. 1
Excerpt: Using standard techniques known in the art, the inventors expressed the individual human proteins S100A8 and S100A9 in recombinant form, and purified them. After generating homodimers and heterodimers, they analysed the properties of the complexes. FIG. 1 illustrates the stimulation of human monocytes for four hours with the indicated concentrations of (A) recombinant human S100A8, recombinant human S100A9 or human S100A8/S100A9, and (B) recombinant human S100A8/S100A9, recombinant human S100A8/S100A9 (N69A) or S100A8/S100A9 (E78A). TNFα released into the culture medium was quantified by means of ELISA.
Monocytes were isolated from human buffy coats by Ficoll-Paque and subsequent Percoll density centrifugation (Pharmacia, Freiburg, Germany) Cells were cultured in Teflon bags (Biofolie 25; Heraeus Instruments, Hanau, Germany) using McCoy's 5a medium supplemented with 15% fetal calf serum for 1 day before stimulation. Monocytes were incubated for 4 hours with different dosis of hS100A8, hS100A9, hS100A8/S100A9 or the modified proteins as indicated in the figures and TNF-α concentrations in supernatants were determined by ELISA (OptEIA, BD Biosciences, Germany).
Release of cytokine TNF-α was measured in the culture supernatants by ELISA (OptEIA, BD Biosciences). […]

[3] = test system: (S100A8/S100A9)2 tetramers; assay: Formation of (S100A8/S100A9)2 tetramers after site directed mutagenesis; parameters: species or system human; conditions: mutation in second calcium binding EF hand of S100A9
Experimental: For the expression of recombinant (rec) proteins without additional peptide sequences, the cDNAs from wt S100A8, wt S100A9 and the S100A9 EF-hand mutants were cloned into the pET11/20 vector [50-NdeI; 30-BamHI]. […] Bacteria were grown at 37° C. in 2×YT for 24 h. Afterwards bacteria were harvested, lysed and the inclusion bodies (IB) prepared. The IB pellet was dissolved in 8 M urea buffer and to establish proper refolding samples were adjusted to pH 2.0-2.5 first by adding hydrochloric acid. After 60 min incubation at room temperature, samples were stepwise dialyzed to get adapted to pH 7.4 for refolding in the presence of 2 mM DTT. After centrifugation (10 min, 60,000 g, 4° C.) to pellet aggregated material, samples were further dialyzed and applied to anion exchange column and gel filtration chromatography. To prepare heterodimeric complexes the recombinant proteins were mixed 1:1 in equimolar concentrations first. Samples were stored as stock solutions at −20° C. Correct refolding and complex formation was assessed by SDS-PAGE, CD spectroscopy, MALDI-MS and ESI-MS.

B1: control peptide 63-79 5A of S100A9 (E64A, D65A, K72A, Q73A, E77A) (peptide)
peptide: MAALDTNADAALSFAEF
notes: Chemically synthesized control peptide, molecular weight 1758 g/mol; Positions follow the numbering of full-length S100A9 ('nomenclature of S100A9 maintained'); also called 63-79 A5; 63-79 AS
binding result (his-tagged rhTLR4/MD2 [1]): no binding

B2: recombinant human S100A9 (wild type, homodimer) (ligand)
chain: MTCKMSQLERNIETIINTFHQYSVKLGHPDTLNQGEFKELVRKDLQNFLKKENKNEKVIEHIMEDLDTNADKQLSFEEFIMLMARLTWASHEKMHEGDEGPGHHHKPGLGEGTP
notes: Uniprot P06702; used as a homodimer; also called S100A9 wt; S100A9-wt
binding result (his-tagged rhTLR4/MD2 [2]): binds

B3: S100A8/S100A9 (E78A): recombinant human S100A8/S100A9 with S100A9 EF hand II mutation E78A, prevents tetramer formation (protein)
chain 1: MLTELEKALNSIIDVYHKYSLIKGNFHAVYRDDLKKLLETECPQYIRKKGADVWFKELDINTDGAVNFQEFLILVIKMGVAAHKKSHEESHKE
chain 2: B2 chain with E78A
activation of monocytes (TNFα released into the culture medium) (human monocytes): activation of monocytes that is comparable to the activation caused by homodimers | tetramer formation [3]: inhibition of tetramer formation
